Measured values from the nanobody polyreactivity screen of Harvey et al. (2022).

Test: yeast display, Sf9 membrane polyspecificity reagent, FACS + sequencing; frameworks hold sequencing errors
Outline: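 Galactose-induced (36–48 hours) yeast carrying a synthetic nanobody display library were exposed to 10% biotinylated, detergent-solubilized Sf9 membrane reagent at 4 °C for 1 hour. FACS followed streptavidin microbead enrichment, using low and high (top ~1%) gates for expression (anti-HA) and reagent binding (streptavidin). Colony PCR, MiSeq 2 × 250 sequencing and CDR-length filtering followed. Labels for polyreactivity reflect the gate of origin.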

Sequence | polyreactivity (PSR sort gate)
QVQLVESGGGLVQAGGSLRLSCAASGSIFSTYVMVWYRQAPGKDRELVAAITVSVGSTYYADSVKGRFTISRDNAKNTVYLQMNSLKPEDTAVYYCAAYGGTGYPFDAYYHDYDYWGQGTQVTVSS | low polyreactivity
QVQLVESGGGLVQAGGSLRLSCAASGRIFRTYAMGWYRQAPGKERELVAAISYSGGSTFYADSVKGRFTISRDNAKNSVYLQMNSLKPESTAVYYCAADSRAKRYYWGQGTQVTVSS | high polyreactivity
QVQLVESGGVLVQEGGSLRLSCAASGRIFQIYAMGWYRQAPGKERELFAAISGSTSYADSVKGRFTISRDNAKNTVYLQMNSLKPEDTAVYYCAKRVVRGKVDYWGQGTQVTVSS | low polyreactivity
QVQLVESGGGLDQAGGSLRLSCAASGRIFQYYAMGWYRQAPGKERELVAAITSGGRTTYADSVKGRFTISRDNAKNNVYLQMNSLKPEDTAVYYCNAKTWYSYNYWGQGTQVTVSS | high polyreactivity
QVQLVESGGGLVQAGGSLRLSCAASGRIFGIYAMGWYRQAPGKERELVATITDSDDSTYYADSVKGRFTISRDNAKNTVNLQMNSLKPEDTAVYYCATAFSYGGGAYDYWGQGTKVTVSS | low polyreactivity
HVQLQESGGGLVQAGGSLRLSCAASGSIFQATYMGWYRQAPGKEREFVASITYGSITKYADSVNGRFTIGRDNAKDTLYLQMNSLKPEDTAVYYCAVDRHYIPAFHYWGQGTQVTVSS | low polyreactivity
QVQLVESGGGLVQAGGSLRLSCAASGRTFGTNAMGWYRPAPGKERELVAAISWRGTSTYYADSVKGRFTISRDNAKNTVYLQMNILKPEVTAVYYCAADFSYTSYATRYQGDYWGQGTQVTVSS | low polyreactivity
QVQLVESGGGLVQAGGSLRLSCAASGGTFYKYAMGWYRQAPGKERELVAAISRSGGSTYYADSVKGRFTISRDNAKNTVYLQMNSLKPEDTAVYYCNAYGSYWDFDYWGQGTQVTVSS | high polyreactivity
QVQLVESGGGLDQAGGSLRLSCAASGFIFVYNVMGWYRQAPGKEREFVATITWRGVTTYYADSVKGRFTISRDNAKNTVYLQMNSLKPEDTAVYYCAVTVAYSYPRRSHYYWGQGTQVTVSS | low polyreactivity
QVQLVESGGGLVQAGGILRLSCAASGIISYDYDMGWYRPSPGKERELVAAISTSGGTTYYADSVKGRFTISRDNAKNTVYLQMNSLKPEDTAVYYCAADNYVGYHWYNYWGQGTQVTVSS | high polyreactivity
QVQLVESGGGLVQAGGSLRLSCAASGRIFGKYAMGWYRQAPWKERELVATISLSGVRTYYADSVKGRFTISRDNAKNTVYLQMNSLKPEDTAVYYCAAGYSSNGDYWGQGTQVTVSS | low polyreactivity
QVQLVESGGGLVQAGGSLRLSCAAYGSIFFGNVMGWYRQAPGKARELVAVISWSGGTTYYADSVKGRFTISRDNAKNTVYLQMNSLKPEDTAVYYCNARYLRRGDYWGQGTQVTVSS | low polyreactivity
QVQLVESGGGLVQAGGSLRLSCAASGFTFVGNAMGSYRQAPGKERELVAAITWSGGRTYYADSVKGRFTISRDNAKNTVYLQMNSLKPEDTAVYYCNKLVERWYGYWGQGTQVTVSS | high polyreactivity
QVQLGESGGGLVQAGGSLRFSCAASGRPFFVYGMGWSRQAPGKERELVAAISWNGGRTYYADSVKGRFTISRDKAKNTVYLQMKSLKPEDTAVYYCNARARDYTGPSSPIFYYWGQGTQVTVSS | low polyreactivity
QVQLVESGGGLVQAGGSLRLSCAASGRIFPYYTMGWYREAPGKERELVATITTGGSTNYADSVKGRFTISRDNAENTVYLQMNSLKPEDTAVYYCNKDGVVEVRFTGRQEYDYWGQGTQVTVSS | low polyreactivity
QVQLVESGGCLVQAGGSLRLSCAASGFTLTAYAMGWYRQAPGKEREFVAAISTSGTRTYYADSVKGRFTISRDNAKITVYLQMYSLKPDDTAVYYCAARYSGYQYWKFNYWGQGTQVTVSS | high polyreactivity
QVQLVESCGGLVQAGGRLRLSCAASGRNFQQYAMGWSRQAPGKERELVAAISRGGSTYYADSVKGRFTISRDNAKNTVYLQMNRLKPEDTAVYYCAARWWRRFSGSHSLYDYWGQGTQVTVSS | high polyreactivity
